Laboratory results reported in patent US20220064286A1.
pIC50, pKd: −log10 of the molar value.

Assays:
[1] = biological target: cynomolgus monkey (cyno) TIGIT protein (cynomolgus monkey); assay: SPR, bivalent affinity
[2] = biological target: human TIGIT protein (human) (UniProt Q495A1); assay: SPR, bivalent affinity
[3] = biological target: human TIGIT protein (human) (UniProt Q495A1); assay: SPR, monovalent affinity
murine TIGIT (murine) = murine TIGIT (murine) (UniProt P86176); assay: SPR, monovalent affinity
murine TIGIT (murine), sequence (P86176 29-148 limits assumed): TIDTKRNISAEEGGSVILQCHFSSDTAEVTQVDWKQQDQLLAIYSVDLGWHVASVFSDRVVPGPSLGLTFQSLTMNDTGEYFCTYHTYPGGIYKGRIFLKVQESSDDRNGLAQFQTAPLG

[4] = biological target: human TIGIT protein (human) (UniProt Q495A1); assay: SPR (BIACORE), N=2
[5] = biological target: human TIGIT protein (human) (UniProt Q495A1); assay: SPR (BIACORE) KD normalized to WT, N=2
mouse TIGIT-His (mouse) = mouse TIGIT-His (mouse) (UniProt P86176); assay: Block ELISA Mouse PVR-Fc:TIGIT-His (blocked ligand mouse PVR-Fc)
mouse TIGIT-His (mouse), sequence (P86176 29-148 limits assumed): as above

[6] = biological target: cynomolgus TIGIT-AviFlag-biotin (cynomolgus monkey); assay: Block ELISA Cyno PVR-Fc:Bio-TIGIT-AviFlag (blocked ligand cyno PVR-Fc)
cynomolgus TIGIT-AviFlag-biotin (cynomolgus monkey), sequence (chain, as listed by the source): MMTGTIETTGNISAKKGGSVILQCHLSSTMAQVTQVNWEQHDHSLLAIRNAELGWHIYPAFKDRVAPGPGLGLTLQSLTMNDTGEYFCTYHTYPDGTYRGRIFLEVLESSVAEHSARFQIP

[7] = biological target: human TIGIT-AviFlag-biotin (human) (UniProt Q495A1); assay: Block ELISA Human PVR-Fc:Bio-TIGIT-AviFlag (blocked ligand human PVR-Fc)
human TIGIT-AviFlag-biotin (human), sequence (Q495A1 22-141): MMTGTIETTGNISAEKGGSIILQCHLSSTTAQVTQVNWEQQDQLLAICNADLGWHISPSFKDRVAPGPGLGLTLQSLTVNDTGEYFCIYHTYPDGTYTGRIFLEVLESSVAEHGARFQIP

human TIGIT protein (human), sequence (Q495A1 22-141 limits assumed): as the sequence (Q495A1 22-141) above
10A7 (antibody), sequence (VH): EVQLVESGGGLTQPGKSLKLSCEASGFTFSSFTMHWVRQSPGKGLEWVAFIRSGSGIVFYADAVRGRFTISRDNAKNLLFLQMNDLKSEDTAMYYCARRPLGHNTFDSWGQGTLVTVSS
10A7 (antibody), sequence (VL): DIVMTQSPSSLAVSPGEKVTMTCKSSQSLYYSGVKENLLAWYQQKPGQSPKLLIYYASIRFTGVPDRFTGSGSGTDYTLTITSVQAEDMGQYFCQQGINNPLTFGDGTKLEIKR
10A7 Fab, sequence (VH): as the sequence (VH) above
10A7 Fab, sequence (VL): as the sequence (VL) above
cynomolgus monkey (cyno) TIGIT protein (cynomolgus monkey), sequence (chain, as listed by the source): as the sequence (chain, as listed by the source) above

| Substance | pKd [1] | pKd [2] | pKd [3] | pKd (murine TIGIT (murine)) | pKd [4] | Binding affinity drop vs. WT [5] | pIC50 (mouse TIGIT-His (mouse)) | pIC50 [6] | pIC50 [7] |
| --- | --- | --- | --- | --- | --- | --- | --- | --- | --- |
| 10A7 (antibody) | 8.09 | 9.27 | 7.62 | 9.62 | 7.35 | 1 fold | 7.90 | 7.25 | 7.89 |
| 10A7 Fab | – | – | – | – | – | – | 7.68 | < 6.88 | 7.67 |
| xCSF1 Fab control | – | – | – | – | – | – | < 6.88 | < 6.88 | < 6.88 |
